In publication PMC8699147:
Values joined by “and” are separate entries in the source; they are usually repeats but may differ in a detail not shown here. Equal entries are not always repeated.

Target: T1, alpha-fetoprotein, P02771
T1 chain: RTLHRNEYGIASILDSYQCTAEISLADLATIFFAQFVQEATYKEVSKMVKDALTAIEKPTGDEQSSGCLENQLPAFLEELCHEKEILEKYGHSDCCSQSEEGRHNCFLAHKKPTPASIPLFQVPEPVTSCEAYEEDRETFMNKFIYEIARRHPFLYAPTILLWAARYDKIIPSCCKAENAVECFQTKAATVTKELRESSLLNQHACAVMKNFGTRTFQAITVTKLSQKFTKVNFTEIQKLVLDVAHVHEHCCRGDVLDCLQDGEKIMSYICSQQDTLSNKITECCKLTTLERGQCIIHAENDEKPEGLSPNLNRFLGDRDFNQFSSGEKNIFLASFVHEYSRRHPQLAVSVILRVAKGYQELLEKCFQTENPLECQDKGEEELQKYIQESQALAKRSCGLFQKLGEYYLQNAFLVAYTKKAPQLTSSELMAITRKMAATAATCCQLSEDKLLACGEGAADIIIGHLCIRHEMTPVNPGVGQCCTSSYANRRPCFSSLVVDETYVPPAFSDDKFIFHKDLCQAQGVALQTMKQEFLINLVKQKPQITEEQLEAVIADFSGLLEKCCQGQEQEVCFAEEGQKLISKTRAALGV
Experiment: native gel or EMSA; native 10% PAGE without SDS of calibrator S1 of VIDAS AFP, 150 V, running buffer 0.025 M TRIS-Base pH 8.3, 0.192 M glycine, Coomassie Blue staining
Conditions: remark: other sources report otherwise

B1: alpha-fetoprotein, P02771 19-609 (natural protein)
chain: RTLHRNEYGIASILDSYQCTAEISLADLATIFFAQFVQEATYKEVSKMVKDALTAIEKPTGDEQSSGCLENQLPAFLEELCHEKEILEKYGHSDCCSQSEEGRHNCFLAHKKPTPASIPLFQVPEPVTSCEAYEEDRETFMNKFIYEIARRHPFLYAPTILLWAARYDKIIPSCCKAENAVECFQTKAATVTKELRESSLLNQHACAVMKNFGTRTFQAITVTKLSQKFTKVNFTEIQKLVLDVAHVHEHCCRGDVLDCLQDGEKIMSYICSQQDTLSNKITECCKLTTLERGQCIIHAENDEKPEGLSPNLNRFLGDRDFNQFSSGEKNIFLASFVHEYSRRHPQLAVSVILRVAKGYQELLEKCFQTENPLECQDKGEEELQKYIQESQALAKRSCGLFQKLGEYYLQNAFLVAYTKKAPQLTSSELMAITRKMAATAATCCQLSEDKLLACGEGAADIIIGHLCIRHEMTPVNPGVGQCCTSSYANRRPCFSSLVVDETYVPPAFSDDKFIFHKDLCQAQGVALQTMKQEFLINLVKQKPQITEEQLEAVIADFSGLLEKCCQGQEQEVCFAEEGQKLISKTRAALGV
In the case of B1, the stoichiometry N is reported as 2 and 3 and 4.
